Experimental data published in US11820827B2, “Methods of treating myelodysplastic syndrome and acute myeloid leukemia with nonfucosylated anti-CD70 antibodies” (Seagen Inc., priority 2019, dated 2023).
Where “and” joins values, the source holds several entries; their conditions need not be identical. Identical values can stand only once.

Tests used:
[1] = system: MV4-11 AML xenograft; test: Tumor growth in the MV4-11 AML xenograft model, SEA-CD70 and azacitidine (Example 10); type: in vivo, SCID mice
[2] = system: MV-411 acute myeloid leukemia model; test: Tumor growth in the MV-411 acute myeloid leukemia xenograft model (Example 7); type: in vivo, SCID mice; conditions: for tumor volume, individual animals: h1F6SEA 10 mg/kg Q4dx4
[3] = molecular target: T1, high affinity human FcγRIIIa receptor (158V) (Homo sapiens, UniProt P08637, F176V); test: CHO-FcγRIIIa binding assay by flow cytometry (human receptor); conditions: compared with SGN-70
T1 construct: expressed in transfected cells; host or cells: CHO
Method: While BLI methodology is used to assess receptor affinity by monitoring binding kinetics, it is primarily set to monitor monovalent binding. To add to BLI data sets, flow cytometry was also performed (FIGS. 2A and 2B).
The CHO-FcγRIIIa binding assay was conducted as follows: • 1. Thaw cells: Cells were thawed on 11 Jun. 2019, and cultured in culture medium for 1 week to recover from freeze-thaw.
• 2. Wash: 60 million cells were washed 1× in PBS in 50-mL tubes. Cells were counted again and resuspended at 2.2×10^6/mL. Then 0.1 mL was pipetted per well • 3. Make 10× dilutions of antibody: The 10× dilutions were prepared (3 mg/mL, 1 mg/mL, 0.3 mg/mL, 0.1 mg/mL, 0.03 mg/mL, 0.01 mg/mL, 0.003 mg/mL, 0.001 mg/mL, and 0.0003 mg/mL in the dilution plate).
• 4. Aspirate: Wash was aspirated in wells and 100 μL of the corresponding antibody dilutions was pipetted with a multichannel pipet. The corresponding concentrations were 300, 100, 30, 10, 3, 1, […] μg/mL in triplicate. The concentrations were decreased vertically down the 96-well round bottom plate. • 5. […] Analyze samples: Samples were analyzed by flow cytometry in high throughput sampler (HTS) mode on the Attune. Median fluorescence intensity (MFI) was graphed (geomean), and equilibrium dissociation constant (KD) for each was calculated in PRIZM

[4] = system: CD8 T cells in PBMCs; test: CD8 T cell depletion in PBMCs; type: cell-based, human; conditions: 24 hours
Method: At the end of the experiment cells were stained with Zombie Aqua Viability Dye and total viable Treg naïve and memory CD4 and CD8 T cell numbers were assessed. […] Fucosylated (WT Clone 13 IgG1) and nonfucosylated (SEA Clone 13 IgG1) antibodies targeting TIGIT were used as positive controls (FIG. 4E-4H).

[5] = system: NOMO-1 CD70+ AML cell line; test: CDC with normal human serum, NOMO-1; type: cell-based; conditions: normal human serum not heat inactivated
Method: AML cell lines positive for CD70 were fluorescently labeled and treated with increasing concentrations of CD70 directed antibodies. Cells were then exposed to human compliment and lysis determined as release of fluorescent dye.
The following protocol was used to assess CDC activity on AML cell lines: • 1. Cells were incubated with […] anti-CRP monoclonal antibodies mix (anti-hCD46, anti-hCD55, anti-hCD59) for 30 minutes on ice. • 2. Cells were washed and plated (200,000 cells/well) in media containing non-heat-inactivated serum, Sytox Green (Life technology), and antibodies, which were added at the indicated final concentration, for 2 hours at 37° C. • 3. Cell dead was quantified by detecting Sitox Green fluorescent signal on an Envison plate reader (Perkin Elmer) and normalized over positive control (1% Triton X-100 treated cells).

[6] = system: FcγRIIIa (F/F low affinity and V/V high affinity alleles); test: BLI binding affinity to FcγRIIIa (low and high affinity alleles); set-up: species or system human; conditions: compared with SGN-70
Text: Parameters are listed Table 1. Biotinylated avi-tagged human FcγR-monomeric Fc N297A LALA-PG and Fc receptor neonatal (FcRN) monomeric Fc N297A IHH fusion proteins (designed and expressed at Seattle Genetics) were loaded onto high precision streptavidin biosensors (ForteBio) to responses between 0.3 to 1 nm following a 100 second sensor check in Buffer A (0.1% bovine serum albumin [BSA], 0.02% Tween20, 1× phosphate-buffered saline [PBS] pH 7.4). After another baseline measurement, titrated antibodies were associated for 600, 10, 100, 50, and 10 seconds and dissociated for 1000, 50, 100, 500, and 50 seconds in Buffer B (1% casein, 0.2% Tween20, 1×PBS pH 7.4) for FcγRI, IIa, IIIa, FcRN pH 6, and FcRN pH 7.4, respectively. Prior to analysis, the references were subtracted in each assay. All the sensorgrams were processed with a Y-axis alignment at the start of association and an inter-step dissociation correction. A 1:1 Langmuir isotherm global fit model was used to fit the curves.

T1 sequence (P08637 17-254 F176V): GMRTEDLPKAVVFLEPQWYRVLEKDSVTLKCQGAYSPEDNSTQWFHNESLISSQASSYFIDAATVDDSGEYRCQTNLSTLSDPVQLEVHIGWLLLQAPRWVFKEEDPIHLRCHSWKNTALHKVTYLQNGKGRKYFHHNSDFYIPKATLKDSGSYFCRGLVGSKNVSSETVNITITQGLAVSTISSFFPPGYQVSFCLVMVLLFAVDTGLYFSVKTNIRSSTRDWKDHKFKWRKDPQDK

B1: SEA-CD70: humanized, nonfucosylated monoclonal IgG1 antibody targeting CD70 (nonfucosylated h1F6) (antibody, chains of the INN, looked up, V domains shown)
VH: QVQLVQSGAEVKKPGASVKVSCKASGYTFTNYGMNWVRQAPGQGLKWMGWINTYTGEPTYADAFKGRVTMTRDTSISTAYMELSRLRSDDTAVYYCARDYGDYGMDYWGQGTTVTVSS
VL: DIVMTQSPDSLAVSLGERATINCRASKSVSTSGYSFMHWYQQKPGQPPKLLIYLASNLESGVPDRFSGSGSGTDFTLTISSLQAEDVAVYYCQHSREVPWTFGQGTKVEIK
modifications: nonfucosylated
[1]; antibody 10 mg/kg Q4dx5, azacitidine 2 mg/kg Q1dx5 for 3 cycles
  effect on tumor growth: reduce tumor growth
[1]; from time to 10× fold change compared to untreated control
  delay in tumor growth: 31%
[2]; from time to 10× fold change versus untreated, h1F6SEA 10 mg/kg, azacitidine 5 mg/kg
  delay in tumor growth: 18%
[2]; day 9 post implant
  tumor volume, individual animals: 51.0 mm^3 and 59.2 mm^3 and 59.0 mm^3 and 52.1 mm^3 and 54.1 mm^3 and 58.6 mm^3
[2]; day 13 post implant
  tumor volume, individual animals: 47.1 mm^3 and 56.4 mm^3 and 72.6 mm^3 and 48.7 mm^3 and 68.7 mm^3 and 59.9 mm^3
[2]; day 16 post implant
  tumor volume, individual animals: 65.3 mm^3 and 60.4 mm^3 and 98.2 mm^3 and 90.8 mm^3 and 83.5 mm^3 and 67.6 mm^3
[2]; day 20 post implant
  tumor volume, individual animals: 63.1 mm^3 and 42.0 mm^3 and 165.9 mm^3 and 151.0 mm^3 and 142.8 mm^3 and 93.1 mm^3
[2]; day 24 post implant
  tumor volume, individual animals: 161.4 mm^3 and 70.9 mm^3 and 266.6 mm^3 and 336.7 mm^3 and 299.1 mm^3 and 165.4 mm^3
[2]; day 27 post implant
  tumor volume, individual animals: 254.6 mm^3 and 0.0 mm^3 and 392.1 mm^3 and 447.0 mm^3 and 337.6 mm^3 and 231.0 mm^3
[2]; day 30 post implant
  tumor volume, individual animals: 352.6 mm^3 and 0.0 mm^3 and 661.5 mm^3 and 831.7 mm^3 and 494.8 mm^3 and 365.1 mm^3
[2]; day 34 post implant
  tumor volume, individual animals: 666.1 mm^3 and 15.4 mm^3 and 998.9 mm^3 and 1042.3 mm^3 and 655.6 mm^3 and 531.6 mm^3
[2]; day 38 post implant
  tumor volume, individual animals: 988.1 mm^3 and 63.1 mm^3 and 1005.8 mm^3 and 751.7 mm^3
[2]; day 41 post implant
  tumor volume, individual animals: 66.6 mm^3 and 1024.7 mm^3
[2]; h1F6SEA 10 mg/kg, extended the length of the study
  tumor growth delay in one mouse of the group: very robust tumor growth delay
[3]
  binding affinity to human FcγRIIIa on CHO cells: bound with higher affinity than SGN-70
[4]; V/V high affinity donor
  CD8+ cell depletion: Neither fucosylated nor nonfucosylated anti-CD70 antibodies depleted CD8+ cells
[4]; low affinity (F/F 158) donor
  CD8+ cell depletion: Neither fucosylated nor nonfucosylated anti-CD70 antibodies depleted CD8+ cells
[5]
  cell lysis by complement fixation: lysed in an antibody-specific, dose-dependent manner
[6]
  binding affinity to FcγRIIIA: much higher binding affinity
